This is an account of results in patent publication US20250034222.

This series is described as follows: SEC after Ni-NTA purification, area under monomer and dimer peaks.

B1: WT IL-38 (residues 3-152, initiator methionine, C-terminal His6 tag) (protein)
chain: MSLPMARYYIIKYADQKALYTRDGQLLVGDPVADNCCAEKICILPNRGLARTKVPIFLGIQGGSRCLACVETEEGPSLQLEDVNIEELYKGGEEATRFTFFQSSSGSAFRLEAAAWPGWFLCGPAEPQQPVQLTKESEPSARTKFYFEQSW
Take B1: the “% monomer upon purification” value is “WT IL-38 forms ˜20% dimer upon purification, ˜80% monomer”.
